According to paper PMC6127294, “Jungle Express is a versatile repressor system for tight transcriptional control” (Nature Communications, 2018):

Target: the molecule itself
Test: crystal structure; EilR (selenomethionine-labeled) in complex with the duplexed eilOc operator oligonucleotide, 2:1 protein:DNA molar ratio; 0.1 M Li2SO4, 0.1 M MgCl2, 0.1 M HEPES pH 7.5, 20% PEG 3350, 10% hexanediol

B1: EilR (natural protein, Enterobacter lignolyticus)
chain: MGYLNREERRETIMQAAMRVALDQGFTGMTVRNIATAAGVAAGQVHHHFTSSGELKSQAFIRVIREMMDLQRLSRTAGWREQLFSALGSEDGRLEPYIRLWRQAQLLADSDPEIKSAYLLTMNLWHDEAVRIIRAGHAAGEFTLRDSAENIAWRLISLVCGLDGIYVLGMPEVDDAAFTRHLQHVIQLELFS
modifications: selenomethionine-labeled protein for the EilR-eilO crystal structure
notes: 21.6 kDa monomer; also called EilR repressor; EilR-His8 (before cleavage of the tag); source: E. coli harboring pLane-eilR, purified (His-Trap, TEV cleavage, second His-Trap flowthrough)
- stoichiometry N: 2
